Consider one substance from IntAct's records for PubMed 11739402.

In one assay the target is gors2_rat Gorasp2 (UniProt Q9R064).
In another assay the target is gors1_rat Gorasp1 (UniProt O35254).
Sequence of gors1_rat Gorasp1 (O35254 whole entry): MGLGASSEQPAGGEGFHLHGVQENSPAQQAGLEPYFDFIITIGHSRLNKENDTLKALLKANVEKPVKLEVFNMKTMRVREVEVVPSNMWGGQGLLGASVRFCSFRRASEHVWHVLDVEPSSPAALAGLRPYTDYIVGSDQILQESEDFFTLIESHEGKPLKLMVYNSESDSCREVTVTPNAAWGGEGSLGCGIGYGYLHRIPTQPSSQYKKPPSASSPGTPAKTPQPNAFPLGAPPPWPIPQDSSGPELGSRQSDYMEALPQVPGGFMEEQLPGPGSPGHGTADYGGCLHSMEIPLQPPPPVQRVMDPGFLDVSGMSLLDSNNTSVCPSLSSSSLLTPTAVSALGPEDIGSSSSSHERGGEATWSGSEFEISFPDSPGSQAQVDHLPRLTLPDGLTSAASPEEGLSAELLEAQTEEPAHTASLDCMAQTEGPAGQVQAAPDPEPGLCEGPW

Sequence of Transmembrane emp24 domain-containing protein 2 (Rattus norvegicus (Rat)), Q63524 V200A;V201A (Q63524 whole entry V200A/V201A, the tested form may be a part): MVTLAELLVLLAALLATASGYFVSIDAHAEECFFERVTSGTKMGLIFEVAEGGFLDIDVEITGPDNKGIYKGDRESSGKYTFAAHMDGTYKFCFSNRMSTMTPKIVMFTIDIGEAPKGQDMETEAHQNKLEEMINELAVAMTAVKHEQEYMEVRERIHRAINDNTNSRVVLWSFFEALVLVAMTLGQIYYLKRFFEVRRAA

With “Transmembrane emp24 domain-containing protein 2 (Rattus norvegicus (Rat)), Q63524 V200A;V201A”, the “effect of a mutation on the interaction” value with gors2_rat Gorasp2 and with gors1_rat Gorasp1 was “decreasing interaction” throughout.
